Assay results taken from publication PMC9888200.

Columns and labels:
[1] = molecular target: Biotinylated MPER peptide (HIV-1); assay: BLI; biotinylated MPER peptide (30 nM) loaded on streptavidin biosensors to 0.6 nm, Octet RED96; Fabs at 50 and 100 nM; 0.5% BSA in PBS with 0.05% Tween 20; association 5 min, dissociation 10 min; values of the two concentrations averaged
[2] = molecular target: recombinant FcγRI (UniProt P12314); assay: ELISA; conditions: highest mAb concentration, about 200 nM (est. from x axis); parent: est. 0.73; read off a plot
Sequence of UniProt P12314 (P12314 16-292): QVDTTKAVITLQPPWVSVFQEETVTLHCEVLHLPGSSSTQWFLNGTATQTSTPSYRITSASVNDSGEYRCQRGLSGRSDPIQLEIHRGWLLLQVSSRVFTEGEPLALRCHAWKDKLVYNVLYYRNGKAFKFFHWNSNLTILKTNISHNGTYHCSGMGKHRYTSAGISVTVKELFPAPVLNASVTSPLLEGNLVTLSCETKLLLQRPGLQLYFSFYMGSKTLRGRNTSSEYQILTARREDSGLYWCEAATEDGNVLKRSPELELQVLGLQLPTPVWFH

10E8 Fab
Kd [1]: 3.8 nM | koff [1]: 0.0016 s⁻¹

10E8v4 WT antibody (IgG) L234A; L235A; P329G
response (Absorbance at 450nm) [2]: 0.05
